Results on one molecule are retold here after article PMC4935975, “A neomorphic cancer cell-specific role of MAGE-A4 in trans-lesion synthesis” (Nature Communications, 2016).

The target in this assay is T1, Hexa-histidine-tagged MAGE-A4 (human (open reading frame amplified …, UniProt P43358 1-317)).
T1 construct: MAGE-A4, full-length recombinant; the MAGE-A4 open reading frame was PCR amplified from H1299 genomic DNA; Expressed from pRSET; also called His-MAGE-A4; 6 × His–MAGE-A4; source: E. coli BL21 (DE3), purified
T1 sequence (looked up): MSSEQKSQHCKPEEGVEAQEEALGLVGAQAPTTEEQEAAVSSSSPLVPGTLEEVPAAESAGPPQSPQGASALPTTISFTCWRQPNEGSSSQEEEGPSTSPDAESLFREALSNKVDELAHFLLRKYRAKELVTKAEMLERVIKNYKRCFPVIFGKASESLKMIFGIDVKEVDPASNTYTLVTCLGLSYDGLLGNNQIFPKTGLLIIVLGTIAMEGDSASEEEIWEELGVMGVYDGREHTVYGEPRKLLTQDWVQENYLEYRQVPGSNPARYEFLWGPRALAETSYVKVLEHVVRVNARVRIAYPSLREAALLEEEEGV
As to the kind of experiment: pull-down; recombinant 6 × His–MAGE-A4 (1 μg) incubated in 1 ml CSK+1% BSA with GST or GST–RAD18 (0.3 μg), 2 h at 4 °C; glutathione sepharose beads; washed three times in CSK+1% BSA; immunoblot. Particulars: both partners purified. A general note: In western blotting, separated proteins are transferred to a membrane and probed.

B1: GST–RAD18 267-402 (domain or fragment, UniProt Q9NS91 267-402, looked up)
chain: IQGNKQQLIKRHQEFVHMYNAQCDALHPKSAAEIVREIENIEKTRMRLEASKLNESVMVFTKDQTEKEIDEIHSKYRKKHKSEFQLLVDQARKGYKKIAGMSQKTVTITKEDESTEKLSSVCMGQEDNMTSVTNHF
notes: Expressed from pGEX2T; source: E. coli BL21 (DE3), purified
With B1, the binding result is recorded as “binds”.
